Assay results from the supplement of paper PMC7125110.
± gives the standard error. This sample holds only a part of the variants without activity.

B1: glmS ribozyme (parent)
chain: AUAAAAGCGCCAGAACUACAGAAAUGUAGUUGACGAGGAGGAGGUUUAUCGAAUUUUCGGCGGAUGCCUCCAAA

Key:
Conditions in all cases: with glucosamine-6-phosphate
glucosamine-6-phosphate [1] = variants of: B1; test: self-cleavage kobs at 40 uM GlcN6P; higher = faster cleavage; RNA array
Method in brief: (§1)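 kcat and KM were obtained from weighted Michaelis–Menten fits across concentrations of kobs values. Those came from one- or two-exponential decay fits to per-tile medians normalised to baseline and to non-cleaving reference variants. The variants were barcoded ribozymes transcribed in situ by E. coli RNA polymerase on sequenced MiSeq chips and tracked through a hybridised Cy3 probe at 37 °C, with 40 μM to 10 mM glucosamine-6-phosphate in HEPES/KCl/Mg(OAc)2 buffer flowed in.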

glucosamine-6-phosphate [2] = variants of: B1; test: self-cleavage kobs at 640 uM GlcN6P; higher = faster cleavage; RNA array
Method in brief: as §1

glucosamine-6-phosphate [3] = variants of: B1; test: self-cleavage kobs at 2500 uM GlcN6P; higher = faster cleavage; RNA array
Method in brief: as §1

glucosamine-6-phosphate [4] = variants of: B1; test: self-cleavage kobs at 10000 uM GlcN6P; higher = faster cleavage; RNA array
Method in brief: as §1

glucosamine-6-phosphate [5] = variants of: B1; test: self-cleavage kobs at 160 uM GlcN6P; higher = faster cleavage; RNA array
Method in brief: as §1

| Variant | self-cleavage kobs at 40 uM GlcN6P (glucosamine-6-phosphate [1]) [s⁻¹] | self-cleavage kobs at 640 uM GlcN6P (glucosamine-6-phosphate [2]) [s⁻¹] | self-cleavage kobs at 2500 uM GlcN6P (glucosamine-6-phosphate [3]) [s⁻¹] | self-cleavage kobs at 10000 uM GlcN6P (glucosamine-6-phosphate [4]) [s⁻¹] | self-cleavage kobs at 160 uM GlcN6P (glucosamine-6-phosphate [5]) [s⁻¹] |
| --- | --- | --- | --- | --- | --- |
| C10A A14C | < 1e-05 | < 1e-05 | < 1e-05 |  |  |
| C10A A14U | < 1e-05 | < 1e-05 |  |  |  |
| C10G G29A | < 1e-05 | < 1e-05 |  | < 1e-05 |  |
| G9U C68A | < 1e-05 |  | < 1e-05 | < 1e-05 | < 1e-05 |
| C10U G21U G59C | < 1e-05 | < 1e-05 | < 1e-05 |  |  |
| U31A G63U | < 1e-05 | < 1e-05 | < 1e-05 | < 1e-05 | < 1e-05 |
| U31A G63A | < 1e-05 |  |  | < 1e-05 |  |
| G51A U57A | < 1e-05 |  |  | < 1e-05 |  |
| G13A G43U | < 1e-05 | < 1e-05 |  |  | < 1e-05 |
| C16A G37C | < 1e-05 |  |  |  |  |
| G7U G35A G40C G43C C58G | < 1e-05 |  |  |  |  |
| G7A G35A A53C | < 1e-05 | < 1e-05 | < 1e-05 |  | < 1e-05 |
| G59U G60C | < 1e-05 | < 1e-05 |  | < 1e-05 |  |
| U30G U49C A64C | < 1e-05 |  |  | < 1e-05 | < 1e-05 |
| G44A C70U | < 1e-05 |  |  |  | < 1e-05 |
| A33U U65G C71U | < 1e-05 |  |  |  |  |
| A6C A14C A36C G37C G40U G66C C67G | < 1e-05 | < 1e-05 |  |  |  |
| A33G C34U | < 1e-05 |  | < 1e-05 |  |  |
| G9U G60U | < 1e-05 | < 1e-05 | < 1e-05 |  |  |
| A39G G43U G44U U55G | < 1e-05 | < 1e-05 | < 1e-05 | < 1e-05 |  |
| U31G C50G C70U | 5.37e-05 ± 2.4e-05 |  |  | 4.81e-05 ± 1.5e-05 |  |
| G7C U65A | < 1e-05 | < 1e-05 |  | < 1e-05 |  |
| G35A A64U C71A | < 1e-05 |  |  |  |  |

| Variant | self-cleavage kobs at 40 uM GlcN6P (glucosamine-6-phosphate [1]) [s⁻¹] | self-cleavage kobs at 640 uM GlcN6P (glucosamine-6-phosphate [2]) [s⁻¹] | self-cleavage kobs at 2500 uM GlcN6P (glucosamine-6-phosphate [3]) [s⁻¹] | self-cleavage kobs at 10000 uM GlcN6P (glucosamine-6-phosphate [4]) [s⁻¹] | self-cleavage kobs at 160 uM GlcN6P (glucosamine-6-phosphate [5]) [s⁻¹] |
| --- | --- | --- | --- | --- | --- |
| G43C U46A | < 1e-05 |  | < 1e-05 | < 1e-05 |  |
| U47G C67A | 0.000123 ± 1.8e-05 | 0.000788 ± 0.00013 | 0.000691 ± 0.00014 | 0.00198 ± 0.00048 | 0.000171 ± 3.2e-05 |
| A14U U47A | 0.000141 ± 1.5e-05 |  |  | 0.00513 ± 0.00047 | 0.000575 ± 0.00028 |
| G44C U45A C71U | < 1e-05 |  |  |  |  |
| C11U G63A | < 1e-05 | < 1e-05 | < 1e-05 | < 1e-05 | < 1e-05 |
| G13C A52U | < 1e-05 | < 1e-05 |  | < 1e-05 | < 1e-05 |
| U31G G38C | < 1e-05 | < 1e-05 | < 1e-05 |  | < 1e-05 |
| G9C G44A | < 1e-05 | < 1e-05 | < 1e-05 | < 1e-05 | < 1e-05 |
| A48C G62A | < 1e-05 | < 1e-05 | < 1e-05 | < 1e-05 | < 1e-05 |
| G43U G62U | < 1e-05 |  | < 1e-05 | < 1e-05 |  |
| A15U G40U G51U C71U | < 1e-05 |  |  |  |  |
| A6C U46G | < 1e-05 |  |  |  | < 1e-05 |
| A14C A15C G62U G63C | < 1e-05 |  |  |  |  |
| C11A G44U | < 1e-05 | < 1e-05 | < 1e-05 |  | < 1e-05 |
| C8G A14C | < 1e-05 | < 1e-05 | < 1e-05 | < 1e-05 | < 1e-05 |
| C11G U31A U49G | < 1e-05 |  |  |  |  |
| C11U G51U | < 1e-05 | < 1e-05 | < 1e-05 | < 1e-05 | < 1e-05 |
| G13A G51A | < 1e-05 | < 1e-05 |  | < 1e-05 |  |
| A12C A33U A53U C68A A73C | < 1e-05 |  |  |  |  |
| C61U U65C | < 1e-05 | < 1e-05 | < 1e-05 | < 1e-05 |  |
| G9C A39G G40U U49C | < 1e-05 |  |  | < 1e-05 |  |
| A42U C58G | < 1e-05 | < 1e-05 | < 1e-05 |  | < 1e-05 |
| G37U G41U U56A G62A G63U | < 1e-05 |  |  |  |  |
